Measured values: patent US20190330271A1 (HANGZHOU WISDOM PANACEA BIOLOGICS, published 2019)

B1: ZR4-FN/AQ (SEQ ID NO: 4), histidine-tagged (peptide)
peptide: SAFQNKR
notes: not shown: histidine tag
B2: ZR + K (SEQ ID NO: 6), histidine-tagged (peptide)
peptide: SFFNNKRK
notes: ZR derivative with a Lys added after Arg7; not shown: histidine tag
B3: ZR + N (SEQ ID NO: 5), histidine-tagged (peptide)
peptide: SFFNNNKR
notes: ZR derivative with one more Asn; not shown: histidine tag
B4: ZR4-ΔN (SEQ ID NO: 3), histidine-tagged (peptide)
peptide: SFFNKR
notes: ZR derivative with one Asn deleted; not shown: histidine tag

Target: T1, Aβ42 oligomers (UniProt P05067 672-713)
T1 construct: domain: Aβ42; Oligomeric state
Experiment: ELISA on coated Aβ42 oligomers, His-tagged polypeptide at 1 µg per well

T1 sequence (P05067 672-713 limits assumed): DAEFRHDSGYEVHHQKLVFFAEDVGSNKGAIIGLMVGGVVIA

Binder | OD450
B1 | 0.47
B2 | 0.56
B3 | 0.54
B4 | 0.49
